To fix the notation:
B1: Stu2-HA (wild-type Stu2, 3xHA tagged) [S. cerevisiae] / γ-tubulin (Tub4) [S. cerevisiae (endogenous in yeast extract)] (parent)
chain 1: MSGEEEVDYTTLPLEERLTYKLWKARLEAYKELNQLFRNSVGDISRDDNIQIYWRDPTLFAQYITDSNVVAQEQAIVALNSLIDAFASSSLKNAHNITLISTWTPLLVEKGLTSSRATTKTQSMSCILSLCGLDTSITQSVELVIPFFEKKLPKLIAAAANCVYELMAAFGLTNVNVQTFLPELLKHVPQLAGHGDRNVRSQTMNLIVEIYKVTGNNSDLLEEILFKKLKPIQVKDLHKLFAKVGDEPSSSKMLFEWEKRELEKKRSQEEEARKRKSILSNDEGEYQIDKDGDTLMGMETDMPPSKQQSGVQIDTFSMLPEETILDKLPKDFQERITSSKWKDRVEALEEFWDSVLSQTKKLKSTSQNYSNLLGIYGHIIQKDANIQAVALAAQSVELICDKLKTPGFSKDYVSLVFTPLLDRTKEKKPSVIEAIRKALLTICKYYDPLASSGRNEDMLKDILEHMKHKTPQIRMECTQLFNASMKEEKDGYSTLQRYLKDEVVPIVIQIVNDTQPAIRTIGFESFAILIKIFGMNTFVKTLEHLDNLKRKKIEETVKTLPNFSIASGSTHSTIETNKQTGPMENKFLLKKSSVLPSKRVASSPLRNDNKSKVNPIGSVASASKPSMVAANNKSRVLLTSKSLATPKNVVANSTDKNEKLIEEYKYRLQKLQNDEMIWTKERQSLLEKMNNTENYKIEMIKENEMLREQLKEAQSKLNEKNIQLRSKEIDVNKLSDRVLSLENELRNMEIELDRNKKRNDTNLQSMGTISSYSIPSSTVSSNYGVKSLSSALPFKEEEDVRRKEDVNYERRSSESIGDLPHRVNSLNIRPYRKNGTGVSSVSDDLDIDFNDSFASEESYKRAAAVTSTLKARIEKMKAKSRREGTTRT
chain 2: MGGEIITLQAGQCGNHVGKFLWSQLAKEHAIGTDGLSQLPDSSTERDDDTKPFFRENSRNKFTPRAIMMDSEPSVIADVENTFRGFFDPRNTWVASDGASAGNSWANGYDIGTRNQDDILNKIDKEIDSTDNFEGFQLLHSVAGGTGSGLGSNLLEALCDRYPKKILTTYSVFPARSSEVVVQSYNTILALRRLIEDSDATVVFDNASLLNISGKVFRNPNIDLQHTNQLISTIISSVTNSIRFPSYMYSSMSSIYSTLIPSPELHFLSPSFTPFTSDYIHDDIAHKGHSSYDVMLDLLDPSNSLVSTAMNNPTYFNVYNTIIGNVEPRQISRAMTKLQQRIKFPSWSSSAMHVNIGRRSPYLPLQPNENEVSGMMLSNMSTVVNVFENACNTFDKVFAKGAFLNNYNVGDLFQSMQNVQDEFAESREVVQSLMEDYVAAEQDSYLDDVLVDDENMVGELEEDLDADGDHKLV

In this assay the parent is B1. Put plainly: co-immunoprecipitation, western blot densitometry. The following applies: with γ-tubulin (Tub4) [S. cerevisiae (endogenous in yeast extract)], PBS buffer, three biological replicates, read off a plot; for screen value: parent: 0; for ratio to parent: parent: 1.

chain 1 K252R: the screen value was -0.05 and the ratio to parent turned out to be 1.2.

Consider chain 1 K252Q, for which the screen value was determined as 1.8 and the ratio to parent turned out to be 7.

For chain 1 K252R K469R, the screen value is -0.5 and the ratio to parent was 0.7.

chain 1 K469Q: the screen value was 1.5 and the ratio to parent was determined as 4.

chain 1 K469R: the screen value is 0.75 and the ratio to parent was found to be 2.2.

In the case of chain 1 K252Q K469Q K870Q, the screen value was determined as 1.8 and the ratio to parent was 5.5.

In the case of chain 1 K252R K469R K870R, the screen value is -3.

Take chain 1 K252Q K469Q: the screen value came to 1 and the ratio to parent turned out to be 2.5.

Regarding chain 1 K870Q, the screen value was -0.6 and the ratio to parent was 0.9.

Turning to chain 1 K870R, the screen value came to 0.1 and the ratio to parent was 1.5.

Source of the values: PMC9491610.
